Reference: PMC2791020

Experiments:
[1] = target: protein kinase A catalytic (C) subunit mutant K285P; assay: SPR
[2] = target: protein kinase A catalytic (C) subunit, wild type (UniProt P05132); assay: SPR

Kd [1] [nM]	koff [1] [s⁻¹]	kon [1] [M⁻¹ s⁻¹]	Kd [2] [nM]	koff [2] [s⁻¹]	kon [2] [M⁻¹ s⁻¹]	Substance
4.9	0.00443	906000	0.9	0.000844	919000	RIαAB, truncated RIα(91–379) containing both cAMP-binding domains (domain or fragment)
111	0.0123					RIIβAB, truncated PKA regulatory subunit RIIβ (from UniProt P12369 108-402) (domain or fragment)
